Substrate in data set [1]: NC(=O)C1=CN([C@@H]2O[C@H](COP(=O)(O)OP(=O)(O)OC[C@H]3O[C@@H](n4cnc5c(N)ncnc54)[C@H](OP(=O)(O)O)[C@@H]3O)[C@@H](O)[C@H]2O)C=CC1
The data set is described as follows: initial rates of pyruvate reduction, Michaelis-Menten fit. Format: biochemical, Lactobacillus helveticus. The settings on record: 10 mM pyruvate, 50 mM HEPES pH 7.5, 25 °C, varied: cofactor.

Substrate in data set [2]: NC(=O)C1=CN([C@@H]2O[C@H](COP(=O)(O)OP(=O)(O)OC[C@H]3O[C@@H](n4cnc5c(N)ncnc54)[C@H](O)[C@@H]3O)[C@@H](O)[C@H]2O)C=CC1
The description is as above. Format: biochemical, Lactobacillus helveticus. To be noted: 10 mM pyruvate, 50 mM HEPES pH 7.5, 25 °C, varied: cofactor.

Substrate in data set [3]: NC(=O)C1=CN([C@@H]2O[C@H](COP(=O)(O)OP(=O)(O)OC[C@H]3O[C@@H](n4ccc(N)nc4=O)[C@H](O)[C@@H]3O)[C@@H](O)[C@H]2O)C=CC1
The description is as above. Format: biochemical, Lactobacillus helveticus. The settings on record: 10 mM pyruvate, 50 mM HEPES pH 7.5, 25 °C, varied: cofactor.

Substrate in data set [4]: NC(=O)C1=CN([C@@H]2O[C@H](COP(=O)(O)OP(=O)(O)OC[C@H]3O[C@@H](n4cnc5c(N)ncnc54)[C@H](OP(=O)(O)O)[C@@H]3O)[C@@H](O)[C@H]2O)C=CC1
Briefly: purified protein, by the assay type. Details: initial rates at varied cofactor, absorbance at 340 nm, Michaelis-Menten fit, pH 7.5, 25 °C. The settings on record: pH 7.5; 25.0 °C. The method, then: (§1) For malic enzymes involved in oxidative decarboxylation, the solution contained 5 mM L-malate and 2 mM MgCl2. For malic enzymes involved in reductive carboxylation, the solution included 10 mM pyruvate, 30 mM NaHCO3 and 2 mM MgCl2. For DLDH∗ involved in pyruvate reduction, initial pyruvate concentration was 10 mM. All reactions were performed in 50 mM HEPES (pH 7.5) at 25 °C, with kinetic data fitted to the Michaelis-Menten equation via nonlinear regression using GraphPad Prism 10.0.2. All assays were performed in triplicate, and error bars show standard deviation. Enzyme activity assays of pure enzymes were conducted in a total volume of 0.1 mL. […] The enzyme activity was monitored by measuring the absorbance at 340 nm using a microplate spectrophotometer (Bio-Tek, VT, USA), with continuous absorbance tracking throughout the assay. One unit of pure enzyme activity was defined as the amount of enzyme required to catalyze the production of 1 μmol NADH, NCDH or NADPH per minute under the specified assay conditions. A molar absorption coefficient of 6220 M^−1 cm^−1 for NADH, NCDH or NADPH was used in the calculations.

Substrate in data set [5]: NC(=O)C1=CN([C@@H]2O[C@H](COP(=O)(O)OP(=O)(O)OC[C@H]3O[C@@H](n4cnc5c(N)ncnc54)[C@H](O)[C@@H]3O)[C@@H](O)[C@H]2O)C=CC1
The data set is described as follows: purified protein, by the assay type. On the set-up: initial rates at varied cofactor, absorbance at 340 nm, Michaelis-Menten fit, pH 7.5, 25 °C. To be noted: pH 7.5; 25.0 °C. The method, then: as §1

Substrate in data set [6]: NC(=O)c1ccc[n+]([C@@H]2O[C@H](COP(=O)(O)OP(=O)(O)OC[C@H]3O[C@@H](n4cnc5c(N)ncnc54)[C@H](OP(=O)(O)O)[C@@H]3O)[C@@H](O)[C@H]2O)c1
Briefly: purified protein, by the assay type. Details: initial rates at varied cofactor, absorbance at 340 nm, Michaelis-Menten fit, pH 7.5, 25 °C. To be noted: pH 7.5; 25.0 °C. The method, then:
as §1

B1: DLDH∗ (D-lactate dehydrogenase, V152R/N213E mutant) (Lactobacillus helveticus; N213E/V152R) (protein)
chain: TKVFAYAIRKDEEPFLNEWKEAHKDIDVDYTDKLLTPETAKLAKGADGVVVYQQLDYTADTLQALADAGVTKMSLRNVGVDNIDMDKAKELGFQITNVPVYSPNAIAEHAAIQAARVLRQDKRMDEKMAKRDLRWAPTIGREVRDQVVGVRGTGHIGQVFMRIMEGFGAKVIAYDIFKNPELEKKGYYVDSLDDLYKQADVISLHVPDVPAEVHMINDKSIAEMKDGVVIVNCSRGRLVDTDAVIRGLDSGKIFGFVMDTYEDEVGVFNKDWEGKEFPDKRLADLIDRPNVLVTPHTAFYTTHAVRNMVVKAFNNNLKLINGEKPDSPVALNKNKF
notes: recombinant; only the V152R/N213E mutant tested; purification and tag not described in main text
For the protein B1, the Km in data set [1] is 2110 µM; in data set [2] it was 4840 µM; in data set [3], 71.1 µM.

B2: ME (Escherichia coli K-12) (protein)
chain: MEPKTKKQRSLYIPYAGPVLLEFPLLNKGSAFSMEERRNFNLLGLLPEVVETIEEQAERAWIQYQGFKTEIDKHIYLRNIQDTNETLFYRLVNNHLDEMMPVIYTPTVGAACERFSEIYRRSRGVFISYQNRHNMDDILQNVPNHNIKVIVVTDGERILGLGDQGIGGMGIPIGKLSLYTACGGISPAYTLPVVLDVGTNNQQLLNDPLYMGWRNPRITDDEYYEFVDEFIQAVKQRWPDVLLQFEDFAQKNAMPLLNRYRNEICSFNDDIQGTAAVTVGTLIAASRAAGGQLSEKKIVFLGAGSAGCGIAEMIISQTQREGLSEEAARQKVFMVDRFGLLTDKMPNLLPFQTKLVQKRENLSDWDTDSDVLSLLDVVRNVKPDILIGVSGQTGLFTEEIIREMHKHCPRPIVMPLSNPTSRVEATPQDIIAWTEGNALVATGSPFNPVVWKDKIYPIAQCNNAFIFPGIGLGVIASGASRITDEMLMSASETLAQYSPLVLNGEGMVLPELKDIQKVSRAIAFAVGKMAQQQGVAVKTSAEALQQAIDDNFWQAEYRDYRRTSI
notes: wild-type, recombinant
For B2, the Km was 520 ± 120 µM in data set [4], 1080 ± 350 µM in data set [5] and 11500 ± 1200 µM in data set [6]. Further, the figures for the kcat in data set [4], in data set [5] and in data set [6] were 0.01 s⁻¹, 1.88 ± 0.35 s⁻¹ and 0.58 ± 0.05 s⁻¹, respectively. In addition, the figures for the kcat/Km in data set [4], in data set [5] and in data set [6] were 20 M⁻¹ s⁻¹, 1740 M⁻¹ s⁻¹ and 50 M⁻¹ s⁻¹, respectively.

What is called Km is the concentration of substrate that gives half-maximal velocity. The kcat is the number of substrate molecules converted per active site and unit of time at saturation. In general, kcat/Km refers to the turnover number divided by the Michaelis constant.

Values taken from article PMC12492669, “Malic enzyme-based system for transhydrogenation between nicotinamide cofactors” (Synthetic and Systems Biotechnology, 2025).
